Measurements as given in patent US20050064403A1.

How the values were obtained:
[1] = target: Kunitz trypsin inhibitor from soybeans (soybean) (UniProt P01070); assay: cell-based or functional assay
[2] = target: T1, Kunitz trypsin inhibitor from soybeans (UniProt P01070)
T1 sequence: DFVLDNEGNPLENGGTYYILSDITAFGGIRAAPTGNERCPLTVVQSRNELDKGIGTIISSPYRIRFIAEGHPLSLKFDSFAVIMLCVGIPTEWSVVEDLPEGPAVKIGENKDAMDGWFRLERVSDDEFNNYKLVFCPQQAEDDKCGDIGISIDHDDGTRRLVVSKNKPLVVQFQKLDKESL

[3] = target: T2, Kunitz trypsin inhibitor from soybeans, P01070
T2 chain: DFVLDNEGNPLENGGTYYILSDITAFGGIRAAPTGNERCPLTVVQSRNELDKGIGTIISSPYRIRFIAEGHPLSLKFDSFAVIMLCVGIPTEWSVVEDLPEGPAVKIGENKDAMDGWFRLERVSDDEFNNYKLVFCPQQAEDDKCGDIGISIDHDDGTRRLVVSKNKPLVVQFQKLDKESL

Albumin (control)
Remaining TI activity (%) [1]: 100%

Bromelain
Remaining TI activity (%) [2]: 30%

B1: Papain (protein)
chain: IPEYVDWRQKGAVTPVKNQGSCGSCWAFSAVVTIEGIIKIRTGNLNEYSEQELLDCDRRSYGCNGGYPWSALQLVAQYGIHYRNTYPYEGVQRYCRSREKGPYAAKTDGVRQVQPYNEGALLYSIANQPVSVVLEAAGKDFQLYRGGIFVGPCGNKVDHAVAAVGYGPNYILIKNSWGTGWGENGYIRIKRGTGNSYGVCGLYTSSFYPVKN
Remaining TI activity (%) [3]: 25%

B2: cysteine proteinase encoded by Aspergillus niger gene nr 28 (protein)
chain: MSKLSAAISKLSLSTIATTLLLLTPPTTAYFYKYPALFVYKDTNCTDISFSLVYPSLGNCNGGYYDYAGSFQMFNIDAAYTCNGSDSTLMFEMYNSSGSDCGDESDLLFRQPVTEECTVADVESPGPLEMPVWFELGSLLGNCGGMAGTMLFGVGILEGGLETKLYWKCYSSRLNTSVTVHRLSLILSMGCTSVSDSYNELAAAHYYEDL
Remaining TI activity (%) [3]: 26%
